Test results reported in publication PMC6510601.

Target: hepatitis B virus (HBV) truncated core protein Cp149 dimer (hepatitis B virus)
Test: resistive-pulse sensing

hepatitis B virus (HBV) truncated core protein Cp149 dimer (domain or fragment)
stoichiometry N: 90 dimers
